Values quoted from earlier work in publication PMC9897510.
Values belong to the substance of their own block, whether it stands above or below them.

Tests used:
FhuA (Escherichia coli) = FhuA (Escherichia coli) (UniProt P06971)
[1] = molecular target: atrial natriuretic factor receptor (UniProt P16066)
FOXM1c (Homo sapiens) = FOXM1c (Homo sapiens) (UniProt Q08050)
FOXM1b (Homo sapiens) = FOXM1b (Homo sapiens) (UniProt Q08050)

Sequence of UniProt P16066 (P16066 33-1061): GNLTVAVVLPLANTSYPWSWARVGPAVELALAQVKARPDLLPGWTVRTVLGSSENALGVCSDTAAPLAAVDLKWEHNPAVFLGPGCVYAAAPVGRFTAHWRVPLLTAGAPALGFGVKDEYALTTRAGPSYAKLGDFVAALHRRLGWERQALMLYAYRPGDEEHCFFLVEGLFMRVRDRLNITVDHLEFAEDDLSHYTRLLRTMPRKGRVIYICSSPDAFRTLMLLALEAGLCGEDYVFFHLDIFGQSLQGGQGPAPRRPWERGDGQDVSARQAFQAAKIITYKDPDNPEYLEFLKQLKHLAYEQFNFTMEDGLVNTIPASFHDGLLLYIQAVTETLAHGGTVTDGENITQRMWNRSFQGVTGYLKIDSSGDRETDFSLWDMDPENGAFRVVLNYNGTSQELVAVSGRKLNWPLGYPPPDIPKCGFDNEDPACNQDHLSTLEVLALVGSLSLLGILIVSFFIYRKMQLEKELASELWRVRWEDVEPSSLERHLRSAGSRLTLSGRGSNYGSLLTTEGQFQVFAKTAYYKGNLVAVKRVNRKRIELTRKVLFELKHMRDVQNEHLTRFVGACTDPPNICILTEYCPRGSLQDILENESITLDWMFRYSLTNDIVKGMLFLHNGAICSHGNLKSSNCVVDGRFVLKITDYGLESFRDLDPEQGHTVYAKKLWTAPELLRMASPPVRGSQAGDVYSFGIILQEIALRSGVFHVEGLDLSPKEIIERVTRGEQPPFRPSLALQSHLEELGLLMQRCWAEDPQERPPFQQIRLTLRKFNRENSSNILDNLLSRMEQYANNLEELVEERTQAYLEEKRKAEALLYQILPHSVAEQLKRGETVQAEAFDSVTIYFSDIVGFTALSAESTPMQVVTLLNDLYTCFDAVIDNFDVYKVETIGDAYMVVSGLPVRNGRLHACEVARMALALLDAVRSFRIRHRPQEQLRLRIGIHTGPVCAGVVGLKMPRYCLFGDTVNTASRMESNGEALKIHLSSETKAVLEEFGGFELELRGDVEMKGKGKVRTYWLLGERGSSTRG
Sequence of UniProt P06971 (P06971 34-747): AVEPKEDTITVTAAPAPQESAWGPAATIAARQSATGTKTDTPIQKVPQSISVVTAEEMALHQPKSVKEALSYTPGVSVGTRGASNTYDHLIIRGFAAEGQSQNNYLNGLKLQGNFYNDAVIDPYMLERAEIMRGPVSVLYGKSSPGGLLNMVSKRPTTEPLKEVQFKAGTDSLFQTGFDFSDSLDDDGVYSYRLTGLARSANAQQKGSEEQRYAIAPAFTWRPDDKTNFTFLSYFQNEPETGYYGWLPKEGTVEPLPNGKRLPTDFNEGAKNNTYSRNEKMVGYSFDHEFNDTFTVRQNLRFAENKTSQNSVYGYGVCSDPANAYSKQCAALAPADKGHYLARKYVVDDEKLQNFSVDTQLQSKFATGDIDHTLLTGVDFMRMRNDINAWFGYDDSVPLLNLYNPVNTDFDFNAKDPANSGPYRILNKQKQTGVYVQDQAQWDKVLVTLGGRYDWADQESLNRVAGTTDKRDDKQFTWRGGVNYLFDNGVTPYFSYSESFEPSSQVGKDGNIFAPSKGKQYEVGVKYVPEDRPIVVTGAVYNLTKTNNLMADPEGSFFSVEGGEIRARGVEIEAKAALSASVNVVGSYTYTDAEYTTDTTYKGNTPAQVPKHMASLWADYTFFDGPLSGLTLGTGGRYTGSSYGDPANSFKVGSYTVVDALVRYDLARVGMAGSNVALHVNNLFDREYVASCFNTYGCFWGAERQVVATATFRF

Kd (FhuA (Escherichia coli)): 1.2 µM
Substance: Microcin J25 (from UniProt Q9X2V7)

Kd [1]: 0.6 µM
Substance: anantin (from UniProt Q7M0J9)

Substance: thiostrepton (from UniProt P0C8P8)
Ki (FOXM1c (Homo sapiens)): 11 µM
Ki (FOXM1b (Homo sapiens)): 31 µM
